According to patent publication US7981863B2, “Treatment of Parkinson's disease with PDGF” (Neuronova AB, priority 2001, dated 2011):

Columns and labels:
[1] = test system: cultured, non-adherent mouse neurospheres; experiment: Intracellular ATP assay, proliferation of cultured mouse neurospheres; format: cell-based; settings: growth media supplemented with B27; 1 nM-0.0005 nM; 3 days of treatment; FIG. 1
Protocol: The anterior lateral wall of the lateral ventricle of 5-6 week old mice was enzymatically dissociated in 0.8 mg/ml hyaluronidase and 0.5 mg/ml trypsin in DMEM containing 4.5 mg/ml glucose and 80 units/ml DNase at 37° C. for 20 min. The cells were gently triturated and mixed with three volumes of Neurosphere medium (DMEM/F12, B27 supplement, 125 mM HEPES pH 7.4) containing 20 ng/ml EGF (unless otherwise stated), 100 units/ml penicillin and 100 μg/ml streptomycin. After passing through a 70 μm strainer, the cells were pelleted at 160×g for 5 min. The supernatant was subsequently removed and the cells resuspended in Neurosphere medium supplemented as above, plated out in culture dishes and incubated at 37° C. Neurospheres were ready to be split approximately 7 days after plating.
To split the neurospheres, cells were collected by centrifugation at 160×g for 5 min. The conditioned supernatant (conditioned medium) was removed and saved. The neurospheres were resuspended in 0.5 ml Trypsin/EDTA in HBSS (1×), incubated at 37° C. for 2 min and triturated gently to aid dissociation. Following a further 3 min incubation at 37° C. and trituration, 3 volumes of ice cold Neurosphere medium medium w/o EGF were added to stop further trypsin activity. […]
After 3 days of treatment, intracelluar ATP was measured using the ATP SL kit (Biothema) according to the manufacturer's instructions.

6-OHDA Lesioned Rats = experiment: i.c.v. infusion in 6-OHDA lesioned rats, BrdU / NeuN labelling; format: in vivo, rat
Protocol: Animal handling and surgical procedures were carried out according to the ethical and regulatory permits set forth by Jordbruksverket and Lund University. Adult female Sprague-Dawley rats (B&K Universal AB) rats weighing 220-250 g, were housed in pairs with a 12 h light-dark cycle with free access to food and water. To lesion the substantia nigra, rats were fixed into a stereotaxic frame and 6-OHDA ([…] in 0.02% ascorbate saline, Sigma) was injected at a rate of 1 μl/min in 2 deposits of 2 and 2.5 μl into the right ascending mesostriatal forebrain bundle at the following coordinates: 4.4 mm caudal to bregma, 1.2 mm lateral to midline, 7.8 mm below dura; 4.0 mm caudal, 0.8 mm lateral, 8.0 mm below dura, respectively (Paxinos and Watson, 1998). Three weeks after 6-OHDA injections, the completeness of the lesion was assessed with the amphetamine-induced rotation test. D-methylamphetamine (2.5 mg, i.p.) was injected 5 min prior to placing the rat in an automated rotormeter bowl that measured the number of rotations over 90 min.
Before implantation, an Alzet Model 2002 osmotic minipump (200 μl; flow rate: 0.5 μl/h, 12 μl/day) was prefilled with 200 μl of compound solution (see below) and placed in a NaCl (0.9%) solution warmed in water bath (37° C.) 36 hrs before implantation. Rats were anesthetized with halothane in a mixture of nitrous oxide/oxygen (70:30) and maintained with 2-3% halothane. For implantation, rats were placed in a stereotaxic frame and the cannula of the Alzet Brain Infusion kit II was placed into the right lateral ventricle (coordinates: AP=−0.3 mm posterior bregma, L=1.5 mm lateral to satura sagittalis, 4.5 mm the dura; Paxinos and Watson, 1998), and secured to the skull with screws and dental cement. The minipump was then placed subcutaneously in the mid-scapular region. The scalp was treated with lidocaine gel before suturing. Twelve days after insertion, the rats were briefly anaesthetized with halothane in order to remove the pump. Removed pumps had the remaining solution volume and weight recorded.
The effects of infused PDGF-BB and BDNF following 6-OHDA lesions were investigated at 2 different time points: at 12 days or 5 weeks after minipump insertion. Rats receiving human PDGF-BB (order # 220-BB-050; 50 μg, R&D Systems) each had 36 ng/d of PDGF dissolved in 0.1 M PBS (3 μg/ml). Rats receiving human recombinant BDNF (order # 248-BD-025; 25 μg, R&D Systems) each had 12 ng/d of BDNF dissolved in 0.1 M PBS (1 μg/ml). BrdU was co-administered with the compound solution in the minipumps by dissolving it into the 0.1 M PBS medium. Control rats received only BrdU/PBS infusions.
Brain tissue was obtained by anesthetizing the rat and transcardially perfusing with 0.9% saline followed by 4% paraformaldehyde (PFA). Brains were stored PFA for 2 hours, then transferred to 20% sucrose PBS and sectioned coronally on a sledge microtome at 30 μm thickness. Free-floating sections were stored in Walter's antifreeze solution at 4° C. until staining.
Following blocking, incubation of monoclonal rat anti-BrdU antibody (Harlan Sera Lab, UK) in 2% blocking solution occurred at a dilution of 1:100 at 4° C. for 36 hrs. The sections were then incubated with biotin-horse-[…] antibody (1:200) (Vector, CA) in 2% blocking solution for 2 hr and visualized with DAB-NiCl Vectastain Elite kit. The procedure for doubling labeling of BrdU with NeuN or TH was similar, except that a monoclonal rat anti-BrdU antibody (1:100; Sigma, Sweden) was incubated either with a monoclonal mouse anti-NeuN antibody (1:100; Chemicon, USA) or with a monoclonal anti-TH antibody (1:1000; Pelfreeze) in the appropriate 2% blocking solution in the dark for 36 to 48 hrs. For immunofluorescent visualization, sections were incubation in secondary antibodies: Cy3-conjugated donkey anti-rat (1:200; Jackson ImmunoResearch, PA) for BrdU; a biotinylated horse anti-mouse antibody (1:200; BA2001, Vector, CA) for NeuN; and a FITC-conjugated goat anti-rat (1:200;) for TH. […]

B1: PDGF-BB: human recombinant PDGF-BB, platelet derived growth factor B-chain homodimer (protein)
chain: SLGSLTIAEPAMIAECKTRTEVFEISRRLIDRTNANFLVWPPCVEVQRCSGCCNNRNVQCRPTQVQLRPVQVRKIEIVRKKPIFKKATVTLEDHLACKCETVAAARPVT
[1]
  proliferative effect (intracellular ATP): concentration dependent proliferative effect
6-OHDA Lesioned Rats; 5 weeks, FIG. 15
  absolute number of BrdU/NeuN double labelled cells in the striatum: significantly more neurons
6-OHDA Lesioned Rats; 12 days after infusion, compared to PBS infusion, PDGF 36 ng/d, BDNF 12 ng/d
  numbers of BrdU labelled cells in the denervated striatum: significantly elevated
6-OHDA Lesioned Rats; 12 days after infusion, compared to PBS treatment
  numbers of BrdU labelled cells in the lesioned substantia nigra: significantly elevated
6-OHDA Lesioned Rats; Week 5, no statistically significant differences
  BrdU cells in the striatum co-labelled with NeuN (proportion of newly generated neurons): 20.9%
